One block for each binder: values may come before it.
Columns and labels:
[1] = target: human membrane attack complex (C5b-9) formed from normal human serum on mouse cells (human) (UniProt P01031); assay: cell-based or functional assay
[2] = target: human membrane attack complex (C5b-9) formed from normal human serum on mouse cells (human, UniProt P01031 752-1676; P13671 22-934; P10643 23-843; P07357 31-584; P07358 55-591; …); assay: cell-based or functional assay

- complement mediated cell lysis (PI uptake, FACS; hepa-1c1c7 cells, 1000 vp/cell AdCAGCD59, 1% NHS) [1]: 12.3%
- fold reduction of complement mediated cell lysis (PI uptake, FACS; hepa-1c1c7 cells, 1000 vp/cell AdCAGCD59, 1% NHS) [1]: 8 fold
- inhibition of cell lysis at 250 vp/cell AdCAGCD59 (hepa-1c1c7 cells, NHS) [1]: > 50%
- inhibition of cell lysis at 500 vp/cell AdCAGCD59 (hepa-1c1c7 cells, NHS) [1]: > 70%
- reduction in MAC immunofluorescence intensity on mouse corneal endothelium (ex vivo, 50% NHS, 20 minutes) [1]: 86%
- reduction in MAC immunofluorescence on mouse eyecups, 7.5 minutes NHS [1]: 68%
- reduction in MAC immunofluorescence on mouse eyecups, 15 minutes NHS [1]: 56%
- reduction in mean MAC immunofluorescence intensity on mouse eyecup RPE at the area of GFP expression [1]: 55%
B1: human CD59, GPI-anchored membrane form expressed from the AdCAGCD59 vector (protein, UniProt P13987 26-102, looked up)
chain: LQCYNCPNPTADCKTAVNCSSDFDACLITKAGLQVYNKCWKFEHCNFNDVTTRLRENELTYYCCKKDLCNFNEQLEN
modifications: glycosyl phosphatidyl inositol (GPI) anchor at asparagine 77 of the mature protein; N-glycosylated

- protection against cell lysis relative to AdCAGGFP-conditioned media with NHS (Hepa-1c1c7 cells) [2]: 34.1%
B2: membrane-independent (soluble) human CD59 lacking the C-terminal 26 amino acids, expressed from AdCAGsCD59 or AAVCAGsCD59 (other)
chain: B1 chain
modifications: N-glycosylated forms (14-18 kDa)

— patent US20130143953A1 (TRUSTEES OF TUFTS COLLEGE, published 2013)
